From patent US20110091994A1, “Methods for Screening Compounds for Treating and/or Preventing an Hepatitis C Virus Infection” (priority 2008, published 2011)

B1: FBLN5 (protein, UniProt Q9UBX5 24-448, looked up)
Fibulin-5: QAQCTNGFDLDRQSGQCLDIDECRTIPEACRGDMMCVNQNGGYLCIPRTNPVYRGPYSNPYSTPYSGPYPAAAPPLSAPNYPTISRPLICRFGYQMDESNQCVDVDECATDSHQCNPTQICINTEGGYTCSCTDGYWLLEGQCLDIDECRYGYCQQLCANVPGSYSCTCNPGFTLNEDGRSCQDVNECATENPCVQTCVNTYGSFICRCDPGYELEEDGVHCSDMDECSFSEFLCQHECVNQPGTYFCSCPPGYILLDDNRSCQDINECEHRNHTCNLQQTCYNLQGGFKCIDPIRCEEPYLRISDNRCMCPAENPGCRDQPFTILYRDMDVVSGRSVPADIFQMQATTRYPGAYYIFQIKSGNEGREFYMRQTGPISATLVMTRPIKGPREIQLDLEMITVNTVINFRGSSVIRLRIYVSQYPF
B2: FBLN2 (protein, UniProt P98095 28-1184, looked up)
Fibulin-2: APRQDCTGVECPPLENCIEEALEPGACCATCVQQGCACEGYQYYDCLQGGFVRGRVPAGQSYFVDFGSTECSCPPGGGKISCQFMLCPELPPNCIEAVVVADSCPQCGQVGCVHAGHKYAAGHTVHLPPCRACHCPDAGGELICYQLPGCHGNFSDAEEGDPERHYEDPYSYDQEVAEVEAATALGGEVQAGAVQAGAGGPPAALGGGSQPLSTIQAPPWPAVLPRPTAAAALGPPAPVQAKARRVTEDSEEEEEEEEEREEMAVTEQLAAGGHRGLDGLPTTAPAGPSLPIQEERAEAGARAEAGARPEENLILDAQATSRSTGPEGVTHAPSLGKAALVPTQAVPGSPRDPVKPSPHNILSTSLPDAAWIPPTREVPRKPQVLPHSHVEEDTDPNSVHSIPRSSPEGSTKDLIETCCAAGQQWAIDNDECLEIPESGTEDNVCRTAQRHCCVSYLQEKSCMAGVLGAKEGETCGAEDNDSCGISLYKQCCDCCGLGLRVRAEGQSCESNPNLGYPCNHVMLSCCEGEEPLIVPEVRRPPEPAAAPRRVSEAEMAGREALSLGTEAELPNSLPGDDQDECLLLPGELCQHLCINTVGSYHCACFPGFSLQDDGRTCRPEGHPPQPEAPQEPALKSEFSQVASNTIPLPLPQPNTCKDNGPCKQVCSTVGGSAICSCFPGYAIMADGVSCEDINECVTDLHTCSRGEHCVNTLGSFHCYKALTCEPGYALKDGECEDVDECAMGTHTCQPGFLCQNTKGSFYCQARQRCMDGFLQDPEGNCVDINECTSLSEPCRPGFSCINTVGSYTCQRNPLICARGYHASDDGTKCVDVNECETGVHRCGEGQVCHNLPGSYRCDCKAGFQRDAFGRGCIDVNECWASPGRLCQHTCENTLGSYRCSCASGFLLAADGKRCEDVNECEAQRCSQECANIYGSYQCYCRQGYQLAEDGHTCTDIDECAQGAGILCTFRCLNVPGSYQCACPEQGYTMTANGRSCKDVDECALGTHNCSEAETCHNIQGSFRCLRFECPPNYVQVSKTKCERTTCHDFLECQNSPARITHYQLNFQTGLLVPAHIFRIGPAPAFTGDTIALNIIKGNEEGYFGTRRLNAYTGVVYLQRAVLEPRDFALDVEMKLWRQGSVTTFLAKMHIFFTTFAL
B3: EFEMP2 (protein, UniProt O95967 24-443, looked up)
EGF-containing fibulin-like …: SASPQDSEEPDSYTECTDGYEWDPDSQHCRDVNECLTIPEACKGEMKCINHYGGYLCLPRSAAVINDLHGEGPPPPVPPAQHPNPCPPGYEPDDQDSCVDVDECAQALHDCRPSQDCHNLPGSYQCTCPDGYRKIGPECVDIDECRYRYCQHRCVNLPGSFRCQCEPGFQLGPNNRSCVDVNECDMGAPCEQRCFNSYGTFLCRCHQGYELHRDGFSCSDIDECSYSSYLCQYRCINEPGRFSCHCPQGYQLLATRLCQDIDECESGAHQCSEAQTCVNFHGGYRCVDTNRCVEPYIQVSENRCLCPASNPLCREQPSSIVHRYMTITSERSVPADVFQIQATSVYPGAYNAFQIRAGNSQGDFYIRQINNVSAMLVLARPVTGPREYVLDLEMVTMNSLMSYRASSVLRLTVFVGAYTF
B4: DEAF1 (protein, UniProt O75398 1-565, looked up)
Deformed epidermal …: MEDSDSAAKQLGLAEAAAVAAAAAVAAAAAAAAGGEAEEPVLSRDEDSEEDADSEAERETPRVTAVAVMAAEPGHMDMGAEALPGPDEAAAAAAFAEVTTVTVANVGAAADNVFTTSVANAASISGHVLSGRTALQIGDSLNTEKATLIVVHTDGSIVETTGLKGPAAPLTPGPQSPPTPLAPGQEKGGTKYNWDPSVYDSELPVRCRNISGTLYKNRLGSGGRGRCIKQGENWYSPTEFEAMAGRASSKDWKRSIRYAGRPLQCLIQDGILNPHAASCTCAACCDDMTLSGPVRLFVPYKRRKKENELPTTPVKKDSPKNITLLPATAATTFTVTPSGQITTSGALTFDRASTVEATAVISESPAQGDVFAGATVQEASVQPPCRASHPEPHYPGYQDSCQIAPFPEAALPTSHPKIVLTSLPALAVPPPTPTKAAPPALVNGLELSEPRSWLYLEEMVNSLLNTAQQLKTLFEQAKHASTYREAATNQAKIHADAERKEQSCVNCGREAMSECTGCHKVNYCSTFCQRKDWKDHQHICGQSAAVTVQADEVHVAESVMEKVTV
B5: FBLN1 (protein, UniProt P23142 30-703, looked up)
Fibulin-1: DVLLEACCADGHRMATHQKDCSLPYATESKECRMVQEQCCHSQLEELHCATGISLANEQDRCATPHGDNASLEATFVKRCCHCCLLGRAAQAQGQSCEYSLMVGYQCGQVFQACCVKSQETGDLDVGGLQETDKIIEVEEEQEDPYLNDRCRGGGPCKQQCRDTGDEVVCSCFVGYQLLSDGVSCEDVNECITGSHSCRLGESCINTVGSFRCQRDSSCGTGYELTEDNSCKDIDECESGIHNCLPDFICQNTLGSFRCRPKLQCKSGFIQDALGNCIDINECLSISAPCPIGHTCINTEGSYTCQKNVPNCGRGYHLNEEGTRCVDVDECAPPAEPCGKGHRCVNSPGSFRCECKTGYYFDGISRMCVDVNECQRYPGRLCGHKCENTLGSYLCSCSVGFRLSVDGRSCEDINECSSSPCSQECANVYGSYQCYCRRGYQLSDVDGVTCEDIDECALPTGGHICSYRCINIPGSFQCSCPSSGYRLAPNGRNCQDIDECVTGIHNCSINETCFNIQGGFRCLAFECPENYRRSAATLQQEKTDTVRCIKSCRPNDVTCVFDPVHTISHTVISLPTFREFTRPEEIIFLRAITPPHPASQANIIFDITEGNLRDSFDIIKRYMDGMTVGVVRQVRPIVGPFHAVLKLEMNYVVGGVVSHRNVVNVHIFVSEYWF
B6: FAM120B (protein, UniProt Q96EK7 1-910, looked up)
Constitutive coactivator of …: MGVRGLQGFVGSTCPHICTVVNFKELAEHHRSKYPGCTPTIVVDAMCCLRYWYTPESWICGGQWREYFSALRDFVKTFTAAGIKLIFFFDGMVEQDKRDEWVKRRLKNNREISRIFHYIKSHKEQPGRNMFFIPSGLAVFTRFALKTLGQETLCSLQEADYEVASYGLQHNCLGILGEDTDYLIYDTCPYFSISELCLESLDTVMLCREKLCESLGLCVADLPLLACLLGNDIIPEGMFESFRYKCLSSYTSVKENFDKKGNIILAVSDHISKVLYLYQGEKKLEEILPLGPNKALFYKGMASYLLPGQKSPWFFQKPKGVITLDKQVISTSSDAESREEVPMCSDAESRQEVPMCTGPESRREVPVYTDSEPRQEVPMCSDPEPRQEVPTCTGPESRREVPMCSDPEPRQEVPMCTGPEARQEVPMYTDSEPRQEVPMYTDSEPRQEVPMYTGSEPRQEVPMYTGPESRQEVPMYTGPESRQEVLIRTDPESRQEIMCTGHESKQEVPICTDPISKQEDSMCTHAEINQKLPVATDFEFKLEALMCTNPEIKQEDPTNVGPEVKQQVTMVSDTEILKVARTHHVQAESYLVYNIMSSGEIECSNTLEDELDQALPSQAFIYRPIRQRVYSLLLEDCQDVTSTCLAVKEWFVYPGNPLRHPDLVRPLQMTIPGGTPSLKILWLNQEPEIQVRRLDTLLACFNLSSSREELQAVESPFQALCCLLIYLFVQVDTLCLEDLHAFIAQALCLQGKSTSQLVNLQPDYINPRAVQLGSLLVRGLTTLVLVNSACGFPWKTSDFMPWNVFDGKLFHQKYLQSEKGYAVEVLLEQNRSRLTKFHNLKAVVCKACMKENRRITGRAHWGSHHAGRWGRQGSSYHRTGSGYSRSSQGQPWRDQGPGSRQYEHDQWRRY
B7: DPF1 (protein, UniProt Q92782 1-387, looked up)
Zinc finger protein neuro-d4: MATVIPGPLSLGEDFYREAIEHCRSYNARLCAERSLRLPFLDSQTGVAQNNCYIWMEKTHRGPGLAPGQIYTYPARCWRKKRRLNILEDPRLRPCEYKIDCEAPLKKEGGLPEGPVLEALLCAETGEKKIELKEEETIMDCQKQQLLEFPHDLEVEDLEDDIPRRKNRAKGKAYGIGGLRKRQDTASLEDRDKPYVCDICGKRYKNRPGLSYHYTHTHLAEEEGEENAERHALPFHRKNNHKQFYKELAWVPEAQRKHTAKKAPDGTVIPNGYCDFCLGGSKKTGCPEDLISCADCGRSGHPSCLQFTVNMTAAVRTYRWQCIECKSCSLCGTSENDDQLLFCDDCDRGYHMYCLSPPMAEPPEGSWSCHLCLRHLKEKASAYITLT

Target: T1, HCV ORFs (Gal4-DB fusions) (Hepatitis C virus genotype 1b, UniProt Q9WMX2)
T1 construct: expressed in transfected cells; host or cells: Saccharomyces cerevisiae MAV203 (IMAP1) / AH109 (IMAP2)
Assay: not given
Format: binding, HCV genotype 1b, isolate con1
Conditions: HCV protein CORE as bait; human protein as prey
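Throughout, for IMAP Y2H IMAP1 (number of IST): yeast two-hybrid screens using HCV genotype 1b proteins fused to Gal4-DB as baits against prey cDNA libraries from human spleen and foetal brain, IMAP1 via transformation and IMAP2 via mating.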
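Throughout, for Interaction with viral protein: yeast two-hybrid screens using HCV genotype 1b proteins fused to Gal4-DB as baits against prey cDNA libraries from human spleen and foetal brain, IMAP1 via transformation and IMAP2 via mating.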

| Molecule | IMAP Y2H IMAP1 (number of IST) |
| --- | --- |
| B1 | 1 |
| B2 | 1 |

Same assay, conditions: HCV protein NS2 as bait; human protein as prey

| Molecule | IMAP Y2H IMAP1 (number of IST) |
| --- | --- |
| B1 | 1 |

Same assay, conditions: HCV protein NS3 as bait; human protein as prey

| Molecule | IMAP Y2H IMAP1 (number of IST) |
| --- | --- |
| B1 | 32 |
| B3 | 3 |
| B4 | 6 |
| B5 | 8 |
| B6 | 1 |
| B7 | 1 |
| B2 | 9 |

Same assay, conditions: HCV protein p7 as bait; human protein as prey

| Molecule | IMAP Y2H IMAP1 (number of IST) |
| --- | --- |
| B2 | 1 |

Tested on: HCV ORFs (Gal4-DB fusions)
Assay: not given
Format: binding, HCV genotype 1b, isolate con1
Conditions: human protein listed by gene symbol; the value names the HCV protein it interacts with

| Molecule | Interaction with viral protein |
| --- | --- |
| B1 | CORE and NS3 and NS2 |
| B3 | NS3 |
| B4 | NS3 |
| B5 | NS3 |
| B6 | NS3 |
| B7 | NS3 |
| B2 | CORE and NS3 |

Target: T2, HCV proteins (Hepatitis C virus genotype 1b, UniProt Q9WMX2)
T2 construct: expressed in transfected cells
Assay: Validation by Y2H pairwise matrices;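 note: yeast two-hybrid pairwise tests of interactions first found in Y2H screens of HCV bait proteins against human cDNA libraries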
Format: binding
Conditions: interaction with HCV protein p7

| Molecule | Y2H matrices |
| --- | --- |
| B2 | + |

Same assay, conditions: validation of interaction with HCV protein CORE

| Molecule | Y2H matrices |
| --- | --- |
| B1 | + |
| B2 | + |

Same assay, conditions: validation of interaction with HCV protein NS2

| Molecule | Y2H matrices |
| --- | --- |
| B1 | + |

Same assay, conditions: validation of interaction with HCV protein NS3

| Molecule | Y2H matrices |
| --- | --- |
| B1 | + |
| B3 | + |
| B4 | + |
| B5 | + |
| B6 | + |
| B7 | + |
| B2 | + |
